Legend:
[1] = biological target: Mouse PD-L1 on CHO cells (mouse) (UniProt Q9EP73); assay: flow cytometry, CHO-mPD-L1 cells, Anti-human IgG Fc-FITC
[2] = biological target: Mouse PD-L1 on CHO cells (mouse) (UniProt Q9EP73); assay: flow cytometry, CHO-mPD-L1 cells, Anti-mouse-IgGFc-FITC
[3] = biological target: human-mouse chimeric PD-L1 on CHO cells (human-mouse chimeric); assay: flow cytometry, CHO-cPD-L1 cells, Anti-human IgG Fc-FITC
[4] = biological target: Rhesus monkey PD-L1 on CHO cells (rhesus monkey); assay: flow cytometry, CHO-rmPD-L1 cells, Anti-mouse-IgGFc-FITC
Chain of Rhesus monkey PD-L1 on CHO cells (rhesus monkey) (Q9NZQ7 other isoform, or with tags, fused parts or gaps limits assumed): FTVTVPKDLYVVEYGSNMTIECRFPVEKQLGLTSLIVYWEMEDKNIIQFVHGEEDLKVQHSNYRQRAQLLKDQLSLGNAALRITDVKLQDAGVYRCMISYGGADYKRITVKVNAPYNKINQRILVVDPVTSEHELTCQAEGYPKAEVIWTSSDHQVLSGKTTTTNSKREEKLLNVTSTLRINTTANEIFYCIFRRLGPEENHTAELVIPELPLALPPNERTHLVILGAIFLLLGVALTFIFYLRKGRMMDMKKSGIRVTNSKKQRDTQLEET

[5] = biological target: Rhesus monkey PD-L1 on CHO cells (rhesus monkey); assay: flow cytometry, CHO-rPD-L1 cells, Anti-human IgG Fc-FITC

Chain of Mouse PD-L1 on CHO cells (mouse) (Q9EP73 19-290 limits assumed): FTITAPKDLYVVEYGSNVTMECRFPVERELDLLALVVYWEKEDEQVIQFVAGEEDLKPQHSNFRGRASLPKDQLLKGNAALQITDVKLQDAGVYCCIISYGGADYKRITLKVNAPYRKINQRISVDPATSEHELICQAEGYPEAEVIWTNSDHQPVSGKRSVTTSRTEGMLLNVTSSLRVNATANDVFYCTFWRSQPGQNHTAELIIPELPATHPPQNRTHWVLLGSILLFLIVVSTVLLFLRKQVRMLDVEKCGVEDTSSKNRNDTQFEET
Chain of human-mouse chimeric PD-L1 on CHO cells (human-mouse chimeric) (Q9EP73 other isoform, or with tags, fused parts or gaps mutant limits assumed): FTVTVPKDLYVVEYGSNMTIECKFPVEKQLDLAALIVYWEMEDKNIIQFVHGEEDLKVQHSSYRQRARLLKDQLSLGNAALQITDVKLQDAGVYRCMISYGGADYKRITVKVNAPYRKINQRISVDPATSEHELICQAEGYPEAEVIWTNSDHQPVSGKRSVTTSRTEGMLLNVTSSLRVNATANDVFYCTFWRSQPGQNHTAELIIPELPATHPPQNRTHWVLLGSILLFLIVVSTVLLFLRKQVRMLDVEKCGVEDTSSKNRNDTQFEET

% cells in the FITC-positive gate [1]: 0.681%
% cells in the FITC-positive gate [2]: 5.52%
% cells in the FITC-positive gate [3]: 0.779%
% cells in the FITC-positive gate [4]: 1.13%
% cells in the FITC-positive gate [5]: 2.74%
Substance: NC

— patent US20220073621A1
